Laboratory results published in paper PMC12702776 (2025).

What was measured:
RAC1^F28L, purified [1] = target: T1, RAC1^F28L, purified (human, UniProt P63000 1-192, F28L); test: mGppNHp-bound RAC1
[2] = target: T2, RAC1^WT (Ras-related C3 botulinum toxin substrate 1, wild type), purified (human, UniProt P63000 1-192); test: mGppNHp-bound RAC1
RAC1^P29S, purified = RAC1^P29S, purified (human, UniProt P63000 1-192, P29S); test: mGppNHp-bound RAC1
RAC1^T17N, purified [3] = target: T3, RAC1^T17N, purified (human, UniProt P63000 1-192, T17N); test: mGppNHp-bound RAC1
RAC1^F28L, purified [4] = target: T1, RAC1^F28L, purified; test: mdGDP-bound RAC1
[5] = target: T2, RAC1^WT (Ras-related C3 botulinum toxin …); test: mdGDP-bound RAC1
RAC1^T17N, purified [6] = target: T3, RAC1^T17N, purified; test: mdGDP-bound RAC1

B1: His-IQGAP1 C794 (C-terminal 794 amino acids of IQ motif-containing GTPase-activating protein 1) (domain or fragment)
chain: PPMVVVRKFVHLLDQSDQDFQEELDLMKMREEVITLIRSNQQLENDLNLMDIKIGLLVKNKITLQDVVSHSKKLTKKNKEQLSDMMMINKQKGGLKALSKEKREKLEAYQHLFYLLQTNPTYLAKLIFQMPQNKSTKFMDSVIFTLYNYASNQREEYLLLRLFKTALQEEIKSKVDQIQEIVTGNPTVIKMVVSFNRGARGQNALRQILAPVVKEIMDDKSLNIKTDPVDIYKSWVNQMESQTGEASKLPYDVTPEQALAHEEVKTRLDSSIRNMRAVTDKFLSAIVSSVDKIPYGMRFIAKVLKDSLHEKFPDAGEDELLKIIGNLLYYRYMNPAIVAPDAFDIIDLSAGGQLTTDQRRNLGSIAKMLQHAASNKMFLGDNAHLSIINEYLSQSYQKFRRFFQTACDVPELQDKFNVDEYSDLVTLTKPVIYISIGEIINTHTLLLDHQDAIAPEHNDPIHELLDDLGEVPTIESLIGESSGNLNDPNKEALAKTEVSLTLTNKFDVPGDENAEMDARTILLNTKRLIVDVIRFQPGETLTEILETPATSEQEAEHQRAMQRRAIRDAKTPDKMKKSKSVKEDSNLTLQEKKEKIQTGLKKLTELGTVDPKNKYQELINDIARDIRNQRRYRQRRKAELVKLQQTYAALNSKATFYGEQVDYYKSYIKTCLDNLASKGKVSKKPREMKGKKSKKISLKYTAARLHEKGVLLEIEDLQVNQFKNVIFEISPTEEVGDFEVKAKFMGVQMETFMLHYQDLLQLQYEGVAVMKLFDRAKVNVNLLIFLLNKKFYGK
Binder B1 has a koff (RAC1^F28L, purified [1]) of 0.206 s⁻¹, a koff [2] of 0.404 s⁻¹ and a koff (RAC1^P29S, purified) of 0.138 s⁻¹. For the same binder, the koff (RAC1^T17N, purified [3]) was 0.0142 s⁻¹.

B2: GST-GDI1 (guanosine dissociation inhibitor 1, full-length) (natural protein)
chain: MAEQEPTAEQLAQIAAENEEDEHSVNYKPPAQKSIQEIQELDKDDESLRKYKEALLGRVAVSADPNVPNVVVTGLTLVCSSAPGPLELDLTGDLESFKKQSFVLKEGVEYRIKISFRVNREIVSGMKYIQHTYRKGVKIDKTDYMVGSYGPRAEEYEFLTPVEEAPKGMLARGSYSIKSRFTDDDKTDHLSWEWNLTIKKDWKD
With B2 the koff (RAC1^F28L, purified [4]) was 1.03 s⁻¹, the koff [5] was 0.693 s⁻¹ and the koff (RAC1^T17N, purified [6]) was 0.038 s⁻¹.
